In article PMC10163693, “The oncogenic role of NF1 in gallbladder cancer through regulation of YAP1 stability by direct interaction with YAP1” (Journal of Translational Medicine, 2023):

T1: GST-NF1^PPQY (residues 2665-2687) (UniProt P21359-2 2665-2687)
T1 construct: Neurofibromin 1 (NF1), residues 2665-2687, holds the PPQY motif; also called GST-tagged NF1^PPQY; source: purified; not shown: GST, N-terminal, kept
T1 chain (looked up): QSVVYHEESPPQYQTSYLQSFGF


Columns and labels:
Details in all cases: both partners purified
[1] = biological target: T2, YAP1^WW1 (as used in ITC) (UniProt P46937 174-204); experiment: ITC; 25 °C, PEAQ-ITC; 10 mM NF1^PPQY peptide injected (20 injections of 2 μl) into 1 mM YAP1^WW1 or YAP1^WW2; 10 mM Tris pH 8.0, 100 mM NaCl; one-site binding model
T2 construct: Yes-associated protein 1 (YAP1), first WW domain; the label YAP1^WW1 is defined as residues 174-204 in the pull-down methods; The ITC methods name only YAP1^WW1

[2] = biological target: T3, YAP1^WW2 (as used in ITC) (UniProt P46937 227-266); experiment: as above
T3 construct: Yes-associated protein 1 (YAP1), second WW domain; the label YAP1^WW2 is defined as residues 227-266 in the pull-down methods; The ITC methods name only YAP1^WW2

[3] = biological target: T1, GST-NF1^PPQY (residues 2665-2687); experiment: pull-down; GST, GST-NF1^PPQY or GST-NF1^AAAA prebound on Glutathione Sepharose beads; increasing amounts of His-Sumo-YAP1^WW1 or His-Sumo-YAP1^WW2 added; 20 mM Tris pH 8.0, 150 mM NaCl, 2 h, 4 °C; eluted with 10 mM GSH; SDS-PAGE, Coomassie blue

Kd [1]	Kd [2]	binding result [3]	Binder
320 µM	346 µM	–	EESPPQYQTS (also called NF1 peptides; source: synthetic peptide (Scilight-Peptide, China)) [NF1^PPQY peptide (residues 2671-2680: EESPPQYQTS)]
–	–	binds	SASGPLPDGWEQAMTQDGEIYYINHKNKTTSWLDPRLDPR (domain or fragment, UniProt P46937 227-266, looked up, Yes-associated protein 1 (YAP1), second WW domain, residues 227-266; source: purified; not shown: His, N-terminal, kept; Sumo, N-terminal, kept) [His-Sumo-YAP1^WW2 (residues 227-266)]
–	–	binds	PAGWEMAKTSSGQRYFLNHIDQTTTWQDPRK (domain or fragment, UniProt P46937 174-204, looked up, Yes-associated protein 1 (YAP1), first WW domain, residues 174-204; source: purified; not shown: His, N-terminal, kept; Sumo, N-terminal, kept) [His-Sumo-YAP1^WW1 (residues 174-204)]
